This note sets out measurements from the Human Domainome abundance scans (Beltran et al. 2025).

B1: Far upstream element-binding protein 2, residues 142 to 214; numbered along this chain, Q92945 (parent)
chain: RTSMTEEYRVPDGMVGLIIGRGGEQINKIQQDSGCKVQISPDSGGLPERSVSLTGAPESVQKAKMMLDDIVSR

± gives the uncertainty stated by the source.

In this data set the parent is B1. Put plainly: abundance fitness (aPCA) (normalised: wild type 0, dead -1); higher = more abundant; growth selection in yeast, the domain comes from the species named. To be noted: Homo sapiens.
With RTSMTEEYRVPDGMVGLIIGRGGEQINKIQQDSGCKVQISPMSGGLPERSVSLTGAPESVQKAKMMLDDIVSR [D42M], the abundance fitness is -0.15 ± 0.057.
The same measure for RTSMTEEYRVPDGMVGLIIGRGGEQINKIQQDSGCKVQISPPSGGLPERSVSLTGAPESVQKAKMMLDDIVSR [D42P]: -0.006 ± 0.051; for RTSMTEEYRVPDGMVGLIIGRGGEQINKIQQDSGCKVQISPNSGGLPERSVSLTGAPESVQKAKMMLDDIVSR [D42N]: -0.069 ± 0.092; for RTSMTEEYRVPDGMVGLIIGRGGEQINKIQQDSGCKVQISPRSGGLPERSVSLTGAPESVQKAKMMLDDIVSR [D42R]: -0.11 ± 0.039.
The result for RTSMTEEYRVPDGMVGLIIGRGGEQINKIQQDSGCKVQISPESGGLPERSVSLTGAPESVQKAKMMLDDIVSR [D42E] reads -0.007 ± 0.053.
The result for RTSMTEEYRVPDGMVGLIIGRGGEQINKIQQDSGCKVQISPSSGGLPERSVSLTGAPESVQKAKMMLDDIVSR [D42S] reads -0.038 ± 0.047; that for RTSMTEEYRVPDGMVGLIIGRGGEQINKIQQDSGCKVQISPLSGGLPERSVSLTGAPESVQKAKMMLDDIVSR [D42L], -0.232 ± 0.045.
Regarding RTSMTEEYRVPDGMVGLIIGRGGEQINKIQQDSGCKVQISPGSGGLPERSVSLTGAPESVQKAKMMLDDIVSR [D42G], the abundance fitness is -0.097 ± 0.042.
The same measure for RTSMTEEYRVPDGMVGLIIGRGGEQINKIQQDSGCKVQISPFSGGLPERSVSLTGAPESVQKAKMMLDDIVSR [D42F]: -0.163 ± 0.085; for RTSMTEEYRVPDGMVGLIIGRGGEQINKIQQDSGCKVQISPKSGGLPERSVSLTGAPESVQKAKMMLDDIVSR [D42K]: -0.014 ± 0.067; for RTSMTEEYRVPDGMVGLIIGRGGEQINKIQQDSGCKVQISPASGGLPERSVSLTGAPESVQKAKMMLDDIVSR [D42A]: -0.013 ± 0.049.
For the variant RTSMTEEYRVPDGMVGLIIGRGGEQINKIQQDSGCKVQIRPDSGGLPERSVSLTGAPESVQKAKMMLDDIVSR [S40R], the abundance fitness is -0.029 ± 0.037.
The same measure for RTSMTEEYRVPDGMVGLIIGRGGEQINKIQQDSGCKVQICPDSGGLPERSVSLTGAPESVQKAKMMLDDIVSR [S40C]: -0.057 ± 0.067; for RTSMTEEYRVPDGMVGLIIGRGGEQINKIQQDSGCKVQIGPDSGGLPERSVSLTGAPESVQKAKMMLDDIVSR [S40G]: -0.042 ± 0.037.
As for RTSMTEEYRVPDGMVGLIIGRGGEQINKIQQDSGCKVQIPPDSGGLPERSVSLTGAPESVQKAKMMLDDIVSR [S40P], the abundance fitness is -0.011 ± 0.053.
The same measure for RTSMTEEYRVPDGMVGLIIGRGGEQINKIQQDSGCKVQIHPDSGGLPERSVSLTGAPESVQKAKMMLDDIVSR [S40H]: -0.078 ± 0.072.
On to RTSMTEEYRVPDGMVGLIIGRGGEQINKIQQDSGCKVQINPDSGGLPERSVSLTGAPESVQKAKMMLDDIVSR [S40N], for which the abundance fitness came out at 0.097 ± 0.089.
The result for RTSMTEEYRVPDGMVGLIIGRGGEQINKIQQDSGCKVQIKPDSGGLPERSVSLTGAPESVQKAKMMLDDIVSR [S40K] reads -0.007 ± 0.065; that for RTSMTEEYRVPDGMVGLIIGRGGEQINKIQQDSGCKVQIAPDSGGLPERSVSLTGAPESVQKAKMMLDDIVSR [S40A], 0.027 ± 0.042; that for RTSMTEEYRVPDGMVGLIIGRGGEQINKIQQDSGCKVQIQPDSGGLPERSVSLTGAPESVQKAKMMLDDIVSR [S40Q], 0.009 ± 0.055.
In the case of RTSMTEEYRVPDGMVGLIIGRGGEQINKIQQDSGCKVQIIPDSGGLPERSVSLTGAPESVQKAKMMLDDIVSR [S40I], the abundance fitness is -0.069 ± 0.095.
The result for RTSMTEEYRVPDGMVGLIIGRGGEQINKIQQDSGCKVQIYPDSGGLPERSVSLTGAPESVQKAKMMLDDIVSR [S40Y] reads -0.187 ± 0.089.
RTSMTEEYRVPDGMVGLIIGRGGEQINKIQQDSGCKVQILPDSGGLPERSVSLTGAPESVQKAKMMLDDIVSR [S40L]: the abundance fitness was found to be 0.01 ± 0.049.
For RTSMTEEYRVPDGMVGLIIGRGGEQINKIQQDSGCKVQIEPDSGGLPERSVSLTGAPESVQKAKMMLDDIVSR [S40E], the abundance fitness is -0.013 ± 0.047.
The same measure for RTSMTEEYRVPDGMVGLIIGRGGEQINKIQQDSGCKVQIDPDSGGLPERSVSLTGAPESVQKAKMMLDDIVSR [S40D]: -0.076 ± 0.067; for RTSMTEEYRVPDGMVGLIIGRGGEQINKIQQDSGCKVQIMPDSGGLPERSVSLTGAPESVQKAKMMLDDIVSR [S40M]: -0.024 ± 0.068.
Take RTSMTEEYRVPDGMVGLIIGRGGEQINKIQQDSGCKVQITPDSGGLPERSVSLTGAPESVQKAKMMLDDIVSR [S40T]: the abundance fitness is -0.059 ± 0.053.
The same measure for RTSMTEEYRVPDGMVGLIIGRGGEQINKIQQDSGCKVQIVPDSGGLPERSVSLTGAPESVQKAKMMLDDIVSR [S40V]: 0.025 ± 0.044; for RTSMTEEYRVPDGMVGLIIGRGGEQINKIQQDSGCKVQIWPDSGGLPERSVSLTGAPESVQKAKMMLDDIVSR [S40W]: -0.207 ± 0.055.
Regarding RTSMTEEYRVPDGMVGLIIGRGGEQINKIQQDSGCKVLISPDSGGLPERSVSLTGAPESVQKAKMMLDDIVSR [Q38L], the abundance fitness was -0.112 ± 0.05.
For RTSMTEEYRVPDGMVGLIIGRGGEQINKIQQDSGCKVNISPDSGGLPERSVSLTGAPESVQKAKMMLDDIVSR [Q38N], the abundance fitness was -0.025 ± 0.082.
Take RTSMTEEYRVPDGMVGLIIGRGGEQINKIQQDSGCKVPISPDSGGLPERSVSLTGAPESVQKAKMMLDDIVSR [Q38P]: the abundance fitness is -0.831 ± 0.069.
On to RTSMTEEYRVPDGMVGLIIGRGGEQINKIQQDSGCKVVISPDSGGLPERSVSLTGAPESVQKAKMMLDDIVSR [Q38V], for which the abundance fitness was -0.001 ± 0.048.
The result for RTSMTEEYRVPDGMVGLIIGRGGEQINKIQQDSGCKVHISPDSGGLPERSVSLTGAPESVQKAKMMLDDIVSR [Q38H] reads 0.095 ± 0.078; that for RTSMTEEYRVPDGMVGLIIGRGGEQINKIQQDSGCKVEISPDSGGLPERSVSLTGAPESVQKAKMMLDDIVSR [Q38E], 0.129 ± 0.054.
The same measure for RTSMTEEYRVPDGMVGLIIGRGGEQINKIQQDSGCKVYISPDSGGLPERSVSLTGAPESVQKAKMMLDDIVSR [Q38Y]: 0.027 ± 0.097; for RTSMTEEYRVPDGMVGLIIGRGGEQINKIQQDSGCKVKISPDSGGLPERSVSLTGAPESVQKAKMMLDDIVSR [Q38K]: -0.068 ± 0.067.
